Reference: publication PMC8980812

Assays:
[1] = molecular target: T1, PleC PAS AB-HK (Caulobacter crescentus)
T1 sequence (P37894 whole entry, looked up): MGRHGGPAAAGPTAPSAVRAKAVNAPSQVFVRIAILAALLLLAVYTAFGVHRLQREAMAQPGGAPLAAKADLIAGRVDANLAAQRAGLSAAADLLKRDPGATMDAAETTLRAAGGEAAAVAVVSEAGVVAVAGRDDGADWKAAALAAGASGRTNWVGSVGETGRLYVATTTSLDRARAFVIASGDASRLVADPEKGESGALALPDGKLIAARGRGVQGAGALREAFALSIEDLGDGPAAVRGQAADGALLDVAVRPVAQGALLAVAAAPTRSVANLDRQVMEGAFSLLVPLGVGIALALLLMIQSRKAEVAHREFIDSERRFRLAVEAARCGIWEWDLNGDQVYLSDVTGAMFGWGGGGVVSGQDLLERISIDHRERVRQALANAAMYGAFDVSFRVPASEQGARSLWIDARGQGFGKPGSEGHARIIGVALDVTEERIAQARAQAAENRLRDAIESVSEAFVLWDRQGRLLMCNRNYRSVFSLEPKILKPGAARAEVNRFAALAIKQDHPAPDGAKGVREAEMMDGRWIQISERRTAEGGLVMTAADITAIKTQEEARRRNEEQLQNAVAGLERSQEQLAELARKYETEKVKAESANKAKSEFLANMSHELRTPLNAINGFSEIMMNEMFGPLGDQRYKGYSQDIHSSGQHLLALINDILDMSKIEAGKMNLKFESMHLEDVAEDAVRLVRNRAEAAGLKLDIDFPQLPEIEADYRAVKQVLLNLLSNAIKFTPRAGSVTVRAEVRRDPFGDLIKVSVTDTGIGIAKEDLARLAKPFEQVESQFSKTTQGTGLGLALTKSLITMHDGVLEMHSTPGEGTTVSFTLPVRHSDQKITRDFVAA

[2] = molecular target: PleC-CcaS chimeric histidine kinase (chimera AB-1) (Caulobacter crescentus | not stated)
[3] = molecular target: PleC-CcaS chimeric histidine kinase (chimera AB-1) (Caulobacter crescentus | not stated); remark: listed apart in the source

B1: PodJ(250–635) (domain or fragment)
chain: LGAVETANPATGVQEGLDSLAATLTQKMEAARLEMAAKLRESADGRFDRMERKLGEMAAHVQAAEQRSAQAIERMGREIVGVADAFNRRVHAAESRNASAIEQVGGEVARIAASVEHKLNRADSVQAQALEKLGGEIARITEKLAERIGSAERRNALAIDDVGEQVARVTERLNQRHERSSQELVDRIRQSEERTLRMLEEAREKIDSRLSEAQRKLEAAPPSPPPAQAPAPVATAQRPVPPAASPFEDNYFSQAASFSTSEDEADAFDAPPAPARSFEVAEFPAAEPEEPAFAHDDYAIADGFEPESPRYEVEPEVSDFAPAEPSRPMSTRDIIEQARAAARAAAASEGKGGKAKSAKKEKASKASGSLFSGFGGFSTKKSKARL
ADP production IC50 (coupled enzyme assay of PleC PAS AB-HK) relative to that of PodJ(1–635) [1]: 2 fold

B2: PodJ(250–635) expressed in E. coli (domain or fragment)
chain: B1 chain
mCherry expression from the cpcG2 promoter through PleC-CcaS and CcaR in E. coli [2]: 3 fold

B3: YFP-PodJ (full-length PodJL) (natural protein)
chain: MTAASPWSVKGIDPKAREVAKDLARRSGMTLGEWLNRMIIEGDGQTADPRLAGDDVPNRAYLEIVKDDAPPRIEIAEHPADEVGRVALALDRLTQRIEAAEGRNAAAITGIDHSVRDALTRLGASEREQIAVAARFEGAVDELKTEQARATERLRRIESEAAGPRSAEALRALEGALGKVAGHLYEGEARTREAIATLEAKLNQQSSGDPSALVEAVVARLGERLEAAETRTSDALRELGASFQALDQRLGAVETANPATGVQEGLDSLAATLTQKMEAARLEMAAKLRESADGRFDRMERKLGEMAAHVQAAEQRSAQAIERMGREIVGVADAFNRRVHAAESRNASAIEQVGGEVARIAASVEHKLNRADSVQAQALEKLGGEIARITEKLAERIGSAERRNALAIDDVGEQVARVTERLNQRHERSSQELVDRIRQSEERTLRMLEEAREKIDSRLSEAQRKLEAAPPSPPPAQAPAPVATAQRPVPPAASPFEDNYFSQAASFSTSEDEADAFDAPPAPARSFEVAEFPAAEPEEPAFAHDDYAIADGFEPESPRYEVEPEVSDFAPAEPSRPMSTRDIIEQARAAARAAAASEGKGGKAKSAKKEKASKASGSLFSGFGGFSTKKSKARLGATVTTALVVFAAAGALGAGVGGLLLLNTDDGNNSPSRVAQAIAGRKADVEVNGPEADTTPGAPRAAVALTTGKVVPAEVEAPAAPPTNEAKALFEDAVRKIESGDRSGVELLKRAANGGYPAAQFYLSKMYEGGKNGVKVDMAEARRWSERAANGGDPRAMHNLALYYFKGEGGPRNSTTAASWFRKAADMGLVDSQFNLAQLYESGLGVSQNPAEAYKWYVIAGRAGDSTARGRATALRSQLTAEAQQTADRSALAFRPQTQVQTASLSSAAPAAANANLGVAQRVLSQLGYYQGPRDGVSSPALRMAIAAYQRDQGLPPTGSVDAETLNRLSVYAR
mCherry expression from the cpcG2 promoter through PleC-CcaS and CcaR in E. coli, relative to the empty vector control [3]: 10 fold
